From patent publication US20260049138A1 (Chugai, published 2026)

molecular target: T1, CD3ε homodimer protein (human, UniProt P07766 23-126, limits assumed, sulfo-tag or biotin label in the ECL assays; amine-coupled to the chip in SPR); test: SPR Biacore T200; CD3ε homodimer on CM4 chip;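 note: Single-residue variant antibodies injected as analyte over CD3ε homodimer immobilized by amine coupling, run at 25 °C in HBS-EP+ buffer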
T1 construct: also called human CD3ε homodimer protein; CD3 (CD3ε)
T1 sequence (P07766 23-126 limits assumed): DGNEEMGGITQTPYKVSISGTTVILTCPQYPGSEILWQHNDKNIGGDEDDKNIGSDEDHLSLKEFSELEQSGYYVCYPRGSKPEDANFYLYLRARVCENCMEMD

Binder | ratio of amounts bound Z=Y/X (altered form / CE115HA000)
CE115HA000 D73A one-arm antibody (antibody, human IgG1, kappa, L234A L235A, N297A, name in Kabat numbering) heavy: QVQLVESGGGVVQPGRSLRLSCAASGFTFSNAWMHWVRQAPGKGLEWVAQIKAKSNNYATYYAESVKGRFTISRDASKNSLYLQMNSLKTEDTAVYYCRYVHYGAYYGVDAWGQGTTVTVSSASTKGPSVFPLAPSSKSTSGGTAALGCLVKDYFPEPVTVSWNSGALTSGVHTFPAVLQSSGLYSLSSVVTVPSSSLGTQTYICNVNHKPSNTKVDKKVEPKSCDKTHTCPPCPAPEAAGGPSVFLFPPKPKDTLMISRTPEVTCVVVDVSHEDPEVKFNWYVDGVEVHNAKTKPREEQYASTYRVVSVLTVLHQDWLNGKEYKCKVSNKALPAPIEKTISKAKGQPREPQVYTLPPSRCELTKNQVSLSCAVKGFYPSDIAVEWESNGQPENNYKTTPPVLDSDGSFFLVSKLTVDKSRWQQGNVFSCSVMHEALHNHYTQKSLSLSPDYKDDDDK EPKSSDKTHTCPPCPAPELLGGPSVFLFPPKPKDTLMISRTPEVTCVVVDVSHEDPEVKFNWYVDGVEVHNAKTKPREEQYNSTYRVVSVLTVLHQDWLNGKEYKCKVSNKALPAPIEKTISKAKGQPREPQVCTLPPSRDELTKNQVSLWCLVKGFYPSDIAVEWESNGQPENNYKTTPPVLDSDGSFFLYSKLTVDKSRWQQGNVFSCSVMHEALHNRYTQKSLSLSP light: DIVMTQSPLSLPVTPGEPASISCRSSQSLVHSNRNTYLHWYQQKPGQAPRLLIYKVSNRFSGVPDRFSGSGSGTDFTLKISRVEAEDVGVYYCGQGTQVPYTFGQGTKLEIKRTVAAPSVFIFPPSDEQLKSGTASVVCLLNNFYPREAKVQWKVDNALQSGNSQESVTEQDSKDSTYSLSSTLTLSKADYEKHKVYACEVTHQGLSSPVTKSFNRGEC | 0.83
CE115HA000 D73K one-arm antibody (antibody, human IgG1, kappa, L234A L235A, N297A, name in Kabat numbering) heavy: QVQLVESGGGVVQPGRSLRLSCAASGFTFSNAWMHWVRQAPGKGLEWVAQIKAKSNNYATYYAESVKGRFTISRDKSKNSLYLQMNSLKTEDTAVYYCRYVHYGAYYGVDAWGQGTTVTVSSASTKGPSVFPLAPSSKSTSGGTAALGCLVKDYFPEPVTVSWNSGALTSGVHTFPAVLQSSGLYSLSSVVTVPSSSLGTQTYICNVNHKPSNTKVDKKVEPKSCDKTHTCPPCPAPEAAGGPSVFLFPPKPKDTLMISRTPEVTCVVVDVSHEDPEVKFNWYVDGVEVHNAKTKPREEQYASTYRVVSVLTVLHQDWLNGKEYKCKVSNKALPAPIEKTISKAKGQPREPQVYTLPPSRCELTKNQVSLSCAVKGFYPSDIAVEWESNGQPENNYKTTPPVLDSDGSFFLVSKLTVDKSRWQQGNVFSCSVMHEALHNHYTQKSLSLSPDYKDDDDK EPKSSDKTHTCPPCPAPELLGGPSVFLFPPKPKDTLMISRTPEVTCVVVDVSHEDPEVKFNWYVDGVEVHNAKTKPREEQYNSTYRVVSVLTVLHQDWLNGKEYKCKVSNKALPAPIEKTISKAKGQPREPQVCTLPPSRDELTKNQVSLWCLVKGFYPSDIAVEWESNGQPENNYKTTPPVLDSDGSFFLYSKLTVDKSRWQQGNVFSCSVMHEALHNRYTQKSLSLSP light: DIVMTQSPLSLPVTPGEPASISCRSSQSLVHSNRNTYLHWYQQKPGQAPRLLIYKVSNRFSGVPDRFSGSGSGTDFTLKISRVEAEDVGVYYCGQGTQVPYTFGQGTKLEIKRTVAAPSVFIFPPSDEQLKSGTASVVCLLNNFYPREAKVQWKVDNALQSGNSQESVTEQDSKDSTYSLSSTLTLSKADYEKHKVYACEVTHQGLSSPVTKSFNRGEC | 0.87
CE115HA000 D73E one-arm antibody (antibody, human IgG1, kappa, L234A L235A, N297A, name in Kabat numbering) heavy: QVQLVESGGGVVQPGRSLRLSCAASGFTFSNAWMHWVRQAPGKGLEWVAQIKAKSNNYATYYAESVKGRFTISRDESKNSLYLQMNSLKTEDTAVYYCRYVHYGAYYGVDAWGQGTTVTVSSASTKGPSVFPLAPSSKSTSGGTAALGCLVKDYFPEPVTVSWNSGALTSGVHTFPAVLQSSGLYSLSSVVTVPSSSLGTQTYICNVNHKPSNTKVDKKVEPKSCDKTHTCPPCPAPEAAGGPSVFLFPPKPKDTLMISRTPEVTCVVVDVSHEDPEVKFNWYVDGVEVHNAKTKPREEQYASTYRVVSVLTVLHQDWLNGKEYKCKVSNKALPAPIEKTISKAKGQPREPQVYTLPPSRCELTKNQVSLSCAVKGFYPSDIAVEWESNGQPENNYKTTPPVLDSDGSFFLVSKLTVDKSRWQQGNVFSCSVMHEALHNHYTQKSLSLSPDYKDDDDK EPKSSDKTHTCPPCPAPELLGGPSVFLFPPKPKDTLMISRTPEVTCVVVDVSHEDPEVKFNWYVDGVEVHNAKTKPREEQYNSTYRVVSVLTVLHQDWLNGKEYKCKVSNKALPAPIEKTISKAKGQPREPQVCTLPPSRDELTKNQVSLWCLVKGFYPSDIAVEWESNGQPENNYKTTPPVLDSDGSFFLYSKLTVDKSRWQQGNVFSCSVMHEALHNRYTQKSLSLSP light: DIVMTQSPLSLPVTPGEPASISCRSSQSLVHSNRNTYLHWYQQKPGQAPRLLIYKVSNRFSGVPDRFSGSGSGTDFTLKISRVEAEDVGVYYCGQGTQVPYTFGQGTKLEIKRTVAAPSVFIFPPSDEQLKSGTASVVCLLNNFYPREAKVQWKVDNALQSGNSQESVTEQDSKDSTYSLSSTLTLSKADYEKHKVYACEVTHQGLSSPVTKSFNRGEC | 0.73

More lines, now with the values ahead:

ratio of amounts bound Z=Y/X (altered form / CE115HA000) | Binder
1.04 | CE115HA000 D73R one-arm antibody (antibody, human IgG1, kappa, L234A L235A, N297A, name in Kabat numbering) heavy: QVQLVESGGGVVQPGRSLRLSCAASGFTFSNAWMHWVRQAPGKGLEWVAQIKAKSNNYATYYAESVKGRFTISRDRSKNSLYLQMNSLKTEDTAVYYCRYVHYGAYYGVDAWGQGTTVTVSSASTKGPSVFPLAPSSKSTSGGTAALGCLVKDYFPEPVTVSWNSGALTSGVHTFPAVLQSSGLYSLSSVVTVPSSSLGTQTYICNVNHKPSNTKVDKKVEPKSCDKTHTCPPCPAPEAAGGPSVFLFPPKPKDTLMISRTPEVTCVVVDVSHEDPEVKFNWYVDGVEVHNAKTKPREEQYASTYRVVSVLTVLHQDWLNGKEYKCKVSNKALPAPIEKTISKAKGQPREPQVYTLPPSRCELTKNQVSLSCAVKGFYPSDIAVEWESNGQPENNYKTTPPVLDSDGSFFLVSKLTVDKSRWQQGNVFSCSVMHEALHNHYTQKSLSLSPDYKDDDDK EPKSSDKTHTCPPCPAPELLGGPSVFLFPPKPKDTLMISRTPEVTCVVVDVSHEDPEVKFNWYVDGVEVHNAKTKPREEQYNSTYRVVSVLTVLHQDWLNGKEYKCKVSNKALPAPIEKTISKAKGQPREPQVCTLPPSRDELTKNQVSLWCLVKGFYPSDIAVEWESNGQPENNYKTTPPVLDSDGSFFLYSKLTVDKSRWQQGNVFSCSVMHEALHNRYTQKSLSLSP light: DIVMTQSPLSLPVTPGEPASISCRSSQSLVHSNRNTYLHWYQQKPGQAPRLLIYKVSNRFSGVPDRFSGSGSGTDFTLKISRVEAEDVGVYYCGQGTQVPYTFGQGTKLEIKRTVAAPSVFIFPPSDEQLKSGTASVVCLLNNFYPREAKVQWKVDNALQSGNSQESVTEQDSKDSTYSLSSTLTLSKADYEKHKVYACEVTHQGLSSPVTKSFNRGEC
0.94 | CE115HA000 D73N one-arm antibody (antibody, human IgG1, kappa, L234A L235A, N297A, name in Kabat numbering) heavy: QVQLVESGGGVVQPGRSLRLSCAASGFTFSNAWMHWVRQAPGKGLEWVAQIKAKSNNYATYYAESVKGRFTISRDNSKNSLYLQMNSLKTEDTAVYYCRYVHYGAYYGVDAWGQGTTVTVSSASTKGPSVFPLAPSSKSTSGGTAALGCLVKDYFPEPVTVSWNSGALTSGVHTFPAVLQSSGLYSLSSVVTVPSSSLGTQTYICNVNHKPSNTKVDKKVEPKSCDKTHTCPPCPAPEAAGGPSVFLFPPKPKDTLMISRTPEVTCVVVDVSHEDPEVKFNWYVDGVEVHNAKTKPREEQYASTYRVVSVLTVLHQDWLNGKEYKCKVSNKALPAPIEKTISKAKGQPREPQVYTLPPSRCELTKNQVSLSCAVKGFYPSDIAVEWESNGQPENNYKTTPPVLDSDGSFFLVSKLTVDKSRWQQGNVFSCSVMHEALHNHYTQKSLSLSPDYKDDDDK EPKSSDKTHTCPPCPAPELLGGPSVFLFPPKPKDTLMISRTPEVTCVVVDVSHEDPEVKFNWYVDGVEVHNAKTKPREEQYNSTYRVVSVLTVLHQDWLNGKEYKCKVSNKALPAPIEKTISKAKGQPREPQVCTLPPSRDELTKNQVSLWCLVKGFYPSDIAVEWESNGQPENNYKTTPPVLDSDGSFFLYSKLTVDKSRWQQGNVFSCSVMHEALHNRYTQKSLSLSP light: DIVMTQSPLSLPVTPGEPASISCRSSQSLVHSNRNTYLHWYQQKPGQAPRLLIYKVSNRFSGVPDRFSGSGSGTDFTLKISRVEAEDVGVYYCGQGTQVPYTFGQGTKLEIKRTVAAPSVFIFPPSDEQLKSGTASVVCLLNNFYPREAKVQWKVDNALQSGNSQESVTEQDSKDSTYSLSSTLTLSKADYEKHKVYACEVTHQGLSSPVTKSFNRGEC
1.07 | CE115HA000 D73G one-arm antibody (antibody, human IgG1, kappa, L234A L235A, N297A, name in Kabat numbering) heavy: QVQLVESGGGVVQPGRSLRLSCAASGFTFSNAWMHWVRQAPGKGLEWVAQIKAKSNNYATYYAESVKGRFTISRDGSKNSLYLQMNSLKTEDTAVYYCRYVHYGAYYGVDAWGQGTTVTVSSASTKGPSVFPLAPSSKSTSGGTAALGCLVKDYFPEPVTVSWNSGALTSGVHTFPAVLQSSGLYSLSSVVTVPSSSLGTQTYICNVNHKPSNTKVDKKVEPKSCDKTHTCPPCPAPEAAGGPSVFLFPPKPKDTLMISRTPEVTCVVVDVSHEDPEVKFNWYVDGVEVHNAKTKPREEQYASTYRVVSVLTVLHQDWLNGKEYKCKVSNKALPAPIEKTISKAKGQPREPQVYTLPPSRCELTKNQVSLSCAVKGFYPSDIAVEWESNGQPENNYKTTPPVLDSDGSFFLVSKLTVDKSRWQQGNVFSCSVMHEALHNHYTQKSLSLSPDYKDDDDK EPKSSDKTHTCPPCPAPELLGGPSVFLFPPKPKDTLMISRTPEVTCVVVDVSHEDPEVKFNWYVDGVEVHNAKTKPREEQYNSTYRVVSVLTVLHQDWLNGKEYKCKVSNKALPAPIEKTISKAKGQPREPQVCTLPPSRDELTKNQVSLWCLVKGFYPSDIAVEWESNGQPENNYKTTPPVLDSDGSFFLYSKLTVDKSRWQQGNVFSCSVMHEALHNRYTQKSLSLSP light: DIVMTQSPLSLPVTPGEPASISCRSSQSLVHSNRNTYLHWYQQKPGQAPRLLIYKVSNRFSGVPDRFSGSGSGTDFTLKISRVEAEDVGVYYCGQGTQVPYTFGQGTKLEIKRTVAAPSVFIFPPSDEQLKSGTASVVCLLNNFYPREAKVQWKVDNALQSGNSQESVTEQDSKDSTYSLSSTLTLSKADYEKHKVYACEVTHQGLSSPVTKSFNRGEC
